Experimental data taken from patent US20230118307A1, “THERAPEUTIC USE OF LONG-ACTING CONJUGATE OF TRIPLE AGONIST HAVING ACTIVITIES TO ALL OF GLUCAGON/GLP-1/GIP RECEPTORS FOR LUNG DISEASE” (HANMI PHARM. CO., LTD., priority 2020, published 2023).
Positions of bridges follow the written chain, without caps; N, C: chain ends. Non-standard residues stand in square brackets, D forms with d. No end group written: not given here. *: point of attachment. Acetyl(2-(4-imidazolyl)) = O=C(Cc1c[nH]cn1)*; Aib = CC(C)(N)C(=O)O

Tests used:
Experiment in all cases: cell-based or functional assay
human GCG receptor = human GCG receptor (human, UniProt P47871 26-477)
human GIP receptor = target: T1, human GIP receptor (human, UniProt P48546 22-466)
T1 sequence (looked up): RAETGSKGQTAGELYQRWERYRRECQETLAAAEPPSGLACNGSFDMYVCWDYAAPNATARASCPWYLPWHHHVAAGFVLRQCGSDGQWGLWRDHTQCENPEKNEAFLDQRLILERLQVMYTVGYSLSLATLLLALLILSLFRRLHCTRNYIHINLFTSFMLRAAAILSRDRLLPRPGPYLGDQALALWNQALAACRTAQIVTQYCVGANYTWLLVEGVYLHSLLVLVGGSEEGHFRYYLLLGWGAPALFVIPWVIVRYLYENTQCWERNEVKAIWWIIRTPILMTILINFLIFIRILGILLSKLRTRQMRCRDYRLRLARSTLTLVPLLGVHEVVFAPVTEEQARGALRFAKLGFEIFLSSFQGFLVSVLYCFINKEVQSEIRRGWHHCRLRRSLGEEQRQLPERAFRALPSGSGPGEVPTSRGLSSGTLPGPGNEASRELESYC

human GLP-1 receptor = human GLP-1 receptor (human, UniProt P43220 24-463)

Chain of human GCG receptor (P47871 26-477): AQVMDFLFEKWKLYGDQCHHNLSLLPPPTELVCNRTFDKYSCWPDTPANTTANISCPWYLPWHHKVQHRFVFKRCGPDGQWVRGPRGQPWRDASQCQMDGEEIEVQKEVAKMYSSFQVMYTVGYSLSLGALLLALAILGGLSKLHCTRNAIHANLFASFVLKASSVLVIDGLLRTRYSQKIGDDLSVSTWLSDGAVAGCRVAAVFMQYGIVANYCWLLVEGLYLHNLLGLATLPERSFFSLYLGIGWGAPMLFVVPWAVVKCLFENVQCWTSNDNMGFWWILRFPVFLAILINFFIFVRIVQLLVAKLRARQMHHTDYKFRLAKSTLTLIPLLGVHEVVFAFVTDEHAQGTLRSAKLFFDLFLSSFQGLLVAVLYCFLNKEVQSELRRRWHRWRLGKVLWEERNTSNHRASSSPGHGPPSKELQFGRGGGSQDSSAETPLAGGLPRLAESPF

B1: triple agonist of SEQ ID NO: 77 (peptide)
peptide: Y[Aib]QGTFTSDYSKYLDEKAAKDFVQWLLDHHPSSGQPPPSC
modifications: bridge 16-20
In vitro Activity Compared to Native Peptide (%) vs. Glucagon (human GCG receptor): 12.2% | In vitro Activity Compared to Native Peptide (%) vs. GIP (human GIP receptor): 35.5% | In vitro Activity Compared to Native Peptide (%) vs. GLP-1 (human GLP-1 receptor): 38.7%

B2: triple agonist of SEQ ID NO: 88 (peptide)
peptide: [Acetyl(2-(4-imidazolyl))][Aib]QGTFTSDYSKYLDEKRQKEFVQWLLNTKC
modifications: bridge 16-20
In vitro Activity Compared to Native Peptide (%) vs. Glucagon (human GCG receptor): 0.3% | In vitro Activity Compared to Native Peptide (%) vs. GIP (human GIP receptor): < 0.1% | In vitro Activity Compared to Native Peptide (%) vs. GLP-1 (human GLP-1 receptor): 9.6%

B3: triple agonist of SEQ ID NO: 86 (peptide)
peptide: [Acetyl(2-(4-imidazolyl))][Aib]QGTFTSDYSKYLDEKRQKEFVNWLLAQC
modifications: bridge 16-20
In vitro Activity Compared to Native Peptide (%) vs. Glucagon (human GCG receptor): 0.4% | In vitro Activity Compared to Native Peptide (%) vs. GIP (human GIP receptor): 0.2% | In vitro Activity Compared to Native Peptide (%) vs. GLP-1 (human GLP-1 receptor): 28.4%

B4: triple agonist of SEQ ID NO: 78 (peptide)
peptide: H[Aib]QGTFTSDYSKYLDEKRQKEFVQWLLDTKC
modifications: bridge 16-20
In vitro Activity Compared to Native Peptide (%) vs. Glucagon (human GCG receptor): 14% | In vitro Activity Compared to Native Peptide (%) vs. GIP (human GIP receptor): 0.12% | In vitro Activity Compared to Native Peptide (%) vs. GLP-1 (human GLP-1 receptor): 51%

B5: triple agonist of SEQ ID NO: 83 (peptide)
peptide: [Acetyl(2-(4-imidazolyl))][Aib]EGTFTSDYSIAMDEIHQKDFVNWLLAQC
modifications: bridge 16-20
In vitro Activity Compared to Native Peptide (%) vs. Glucagon (human GCG receptor): 1.3% | In vitro Activity Compared to Native Peptide (%) vs. GIP (human GIP receptor): 0.4% | In vitro Activity Compared to Native Peptide (%) vs. GLP-1 (human GLP-1 receptor): 47.3%

B6: triple agonist of SEQ ID NO: 92 (peptide)
peptide: [Acetyl(2-(4-imidazolyl))][Aib]QGTFTSDYSIAMDEIHQKDFVNWLLAQKC
modifications: bridge 16-20
In vitro Activity Compared to Native Peptide (%) vs. Glucagon (human GCG receptor): < 0.1% | In vitro Activity Compared to Native Peptide (%) vs. GIP (human GIP receptor): 0.4% | In vitro Activity Compared to Native Peptide (%) vs. GLP-1 (human GLP-1 receptor): 0.8%

B7: triple agonist of SEQ ID NO: 87 (peptide)
peptide: [Acetyl(2-(4-imidazolyl))][Aib]QGTFTSDYSIAMDEIHQKDFVNWLLNTC
modifications: bridge 16-20
In vitro Activity Compared to Native Peptide (%) vs. Glucagon (human GCG receptor): < 0.1% | In vitro Activity Compared to Native Peptide (%) vs. GIP (human GIP receptor): < 0.1% | In vitro Activity Compared to Native Peptide (%) vs. GLP-1 (human GLP-1 receptor): 0.9%

B8: triple agonist of SEQ ID NO: 90 (peptide)
peptide: [Acetyl(2-(4-imidazolyl))][Aib]EGTFTSDYSIAMDEIHQKDFVNWLLAQKC
modifications: bridge 16-20
In vitro Activity Compared to Native Peptide (%) vs. Glucagon (human GCG receptor): < 0.1% | In vitro Activity Compared to Native Peptide (%) vs. GIP (human GIP receptor): < 0.1% | In vitro Activity Compared to Native Peptide (%) vs. GLP-1 (human GLP-1 receptor): 7.4%

B9: triple agonist of SEQ ID NO: 85 (peptide)
peptide: [Acetyl(2-(4-imidazolyl))][Aib]QGTFTSDYSIAMDEIHQKDFVNWLLAQC
modifications: bridge 16-20
In vitro Activity Compared to Native Peptide (%) vs. Glucagon (human GCG receptor): < 0.1% | In vitro Activity Compared to Native Peptide (%) vs. GIP (human GIP receptor): 0.3% | In vitro Activity Compared to Native Peptide (%) vs. GLP-1 (human GLP-1 receptor): 4.3%

B10: triple agonist of SEQ ID NO: 84 (peptide)
peptide: [Acetyl(2-(4-imidazolyl))][Aib]EGTFTSDYSIAMDEIHQKDFVDWLLAEC
modifications: bridge 16-20
In vitro Activity Compared to Native Peptide (%) vs. Glucagon (human GCG receptor): < 0.1% | In vitro Activity Compared to Native Peptide (%) vs. GIP (human GIP receptor): < 0.1% | In vitro Activity Compared to Native Peptide (%) vs. GLP-1 (human GLP-1 receptor): 4.2%

B11: triple agonist of SEQ ID NO: 9 (peptide)
peptide: H[Aib]QGTFTSDVSKYLDGQAAQEFVAWLLAGC
In vitro Activity Compared to Native Peptide (%) vs. Glucagon (human GCG receptor): 0.13% | In vitro Activity Compared to Native Peptide (%) vs. GIP (human GIP receptor): < 0.1% | In vitro Activity Compared to Native Peptide (%) vs. GLP-1 (human GLP-1 receptor): 32.1%

B12: triple agonist of SEQ ID NO: 75 (peptide)
peptide: Y[Aib]QGTFTSDYSKYLDEKAAKEFVQWLLDHHPSSGQPPPSC
modifications: bridge 16-20
In vitro Activity Compared to Native Peptide (%) vs. Glucagon (human GCG receptor): 8.5% | In vitro Activity Compared to Native Peptide (%) vs. GIP (human GIP receptor): 18% | In vitro Activity Compared to Native Peptide (%) vs. GLP-1 (human GLP-1 receptor): 35.1%

B13: triple agonist of SEQ ID NO: 81 (peptide)
peptide: [Acetyl(2-(4-imidazolyl))][Aib]QGTFTSDYSKYLDEKRQKEFVQWLLNTC
modifications: bridge 16-20
In vitro Activity Compared to Native Peptide (%) vs. Glucagon (human GCG receptor): 0.3% | In vitro Activity Compared to Native Peptide (%) vs. GIP (human GIP receptor): < 0.1% | In vitro Activity Compared to Native Peptide (%) vs. GLP-1 (human GLP-1 receptor): 7.8%

B14: triple agonist of SEQ ID NO: 82 (peptide)
peptide: [Acetyl(2-(4-imidazolyl))][Aib]QGTFTSDYSKYLDEKRQKEFVQWLLDTC
modifications: bridge 16-20
In vitro Activity Compared to Native Peptide (%) vs. Glucagon (human GCG receptor): 1.1% | In vitro Activity Compared to Native Peptide (%) vs. GIP (human GIP receptor): < 0.1% | In vitro Activity Compared to Native Peptide (%) vs. GLP-1 (human GLP-1 receptor): 9.5%

B15: triple agonist of SEQ ID NO: 91 (peptide)
peptide: [Acetyl(2-(4-imidazolyl))][Aib]EGTFTSDYSIAMDEIHQKDFVDWLLAEKC
modifications: bridge 16-20
In vitro Activity Compared to Native Peptide (%) vs. Glucagon (human GCG receptor): 16.8% | In vitro Activity Compared to Native Peptide (%) vs. GIP (human GIP receptor): 0.3% | In vitro Activity Compared to Native Peptide (%) vs. GLP-1 (human GLP-1 receptor): 31.9%

B16: triple agonist of SEQ ID NO: 89 (peptide)
peptide: [Acetyl(2-(4-imidazolyl))][Aib]QGTFTSDYSKYLDEKRQKEFVQWLLDTKC
modifications: bridge 16-20
In vitro Activity Compared to Native Peptide (%) vs. Glucagon (human GCG receptor): 0.7% | In vitro Activity Compared to Native Peptide (%) vs. GIP (human GIP receptor): < 0.1% | In vitro Activity Compared to Native Peptide (%) vs. GLP-1 (human GLP-1 receptor): 7.1%

B17: triple agonist of SEQ ID NO: 76 (peptide)
peptide: Y[Aib]QGTFTSDYSKYLDEKRAKDFVQWLLDHHPSSGQPPPSC
modifications: bridge 16-20
In vitro Activity Compared to Native Peptide (%) vs. Glucagon (human GCG receptor): 47.6% | In vitro Activity Compared to Native Peptide (%) vs. GIP (human GIP receptor): 11.7% | In vitro Activity Compared to Native Peptide (%) vs. GLP-1 (human GLP-1 receptor): 10.3%

B18: triple agonist of SEQ ID NO: 80 (peptide)
peptide: H[Aib]EGTFTSDYSIAMDEIHQKDFVDWLLAEKC
modifications: bridge 16-20
In vitro Activity Compared to Native Peptide (%) vs. Glucagon (human GCG receptor): 0% | In vitro Activity Compared to Native Peptide (%) vs. GIP (human GIP receptor): 0.1% | In vitro Activity Compared to Native Peptide (%) vs. GLP-1 (human GLP-1 receptor): 8.1%

B19: triple agonist of SEQ ID NO: 79 (peptide)
peptide: H[Aib]EGTFTSDYSIAMDEIHQKDFVNWLLAQKC
modifications: bridge 16-20
In vitro Activity Compared to Native Peptide (%) vs. Glucagon (human GCG receptor): 4.9% | In vitro Activity Compared to Native Peptide (%) vs. GIP (human GIP receptor): 1.4% | In vitro Activity Compared to Native Peptide (%) vs. GLP-1 (human GLP-1 receptor): 41.5%

B20: triple agonist of SEQ ID NO: 93 (peptide)
peptide: [Acetyl(2-(4-imidazolyl))][Aib]QGTFTSDYSKYLDEKRQKEFVNWLLAQKC
modifications: bridge 16-20
In vitro Activity Compared to Native Peptide (%) vs. Glucagon (human GCG receptor): 0.3% | In vitro Activity Compared to Native Peptide (%) vs. GIP (human GIP receptor): 0.7% | In vitro Activity Compared to Native Peptide (%) vs. GLP-1 (human GLP-1 receptor): 5.7%
